Assay results from patent publication US20230012273A1 (Boehringer Ingelheim, published 2023).

Experiments:
[1] = target: T1, full-length human SIRPβ1 (NP_006056.2) on cells (human, UniProt O00241 30-398); assay: flow cytometry, U937 SIRPα KO cells
T1 construct: on U937 SIRPα KO cells and Expi-CHO cells; also called β1 WT
Description: Antibody binding to cells expressing full-length human SIRPβ1 (NP_006056.2) and SIRPβL (NP_001129316.1) is evaluated by flow cytometry. SIRPβ1- or SIRPβL-expressing U937^{SIRPα KO} cells are blocked with donkey IgG and incubated on ice with increasing concentrations of antibodies for 60 minutes, washed and stained with AF647-conjugated donkey F(ab′)₂ anti-human IgG secondary reagent. Cells are washed, fixed, and analyzed by flow cytometry. Median fluorescent intensity is determined and used as a measure of antibody binding.

[2] = target: T2, human SIRPαV1 extracellular domain + His-tag (NP_542970.1) (human, UniProt P78324 31-373); assay: SPR, Ab captured, ECD-His analyte
T2 construct: also called hSIRPαV1; HuSIRPαV1
T2 sequence (P78324 other isoform, or with tags, fused parts or gaps): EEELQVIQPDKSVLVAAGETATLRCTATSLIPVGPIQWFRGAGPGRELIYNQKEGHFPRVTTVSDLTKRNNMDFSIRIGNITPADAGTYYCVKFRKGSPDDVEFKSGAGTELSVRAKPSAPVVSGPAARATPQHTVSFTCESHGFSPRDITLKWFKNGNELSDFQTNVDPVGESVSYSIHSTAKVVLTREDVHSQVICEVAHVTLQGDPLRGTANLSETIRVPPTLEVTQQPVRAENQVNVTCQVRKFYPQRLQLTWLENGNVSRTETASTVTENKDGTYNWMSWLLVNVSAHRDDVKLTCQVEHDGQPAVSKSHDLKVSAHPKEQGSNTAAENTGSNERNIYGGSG
Procedure, shortened: (§1)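 SPR; Ab capture surface, ethanolamine-deactivated (1M, 420 s, 10 μl/min). Analyte: SIRP ECD+His, 2-fold dilution series in 1×HBS-EP+. Inject 300 s @ 30 μl/min; dissoc. 600 s.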

[3] = target: T3, human SIRPαV2 extracellular domain + His-tag (CAA71403.1) (human, UniProt P78324 31-373); assay: SPR, Ab captured, ECD-His analyte
T3 construct: also called hSIRPαV2; HuSIRPαV2
T3 sequence (P78324 other isoform, or with tags, fused parts or gaps): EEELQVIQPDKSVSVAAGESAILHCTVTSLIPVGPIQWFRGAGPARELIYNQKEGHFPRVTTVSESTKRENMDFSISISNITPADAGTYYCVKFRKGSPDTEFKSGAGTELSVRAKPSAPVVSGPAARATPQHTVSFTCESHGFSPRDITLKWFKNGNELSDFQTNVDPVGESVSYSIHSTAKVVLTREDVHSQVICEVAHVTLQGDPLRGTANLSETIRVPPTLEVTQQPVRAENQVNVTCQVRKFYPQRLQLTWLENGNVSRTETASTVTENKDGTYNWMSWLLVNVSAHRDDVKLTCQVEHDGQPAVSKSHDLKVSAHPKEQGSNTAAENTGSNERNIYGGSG
Procedure, shortened: as §1

[4] = target: T4, human SIRPβ1 extracellular domain + His-tag (NP_006056.2) (human, UniProt O00241 30-371); assay: SPR, Ab captured, ECD-His analyte
T4 construct: also called hSIRPβ1; HuSIRPβ1
T4 sequence (O00241 other isoform, or with tags, fused parts or gaps): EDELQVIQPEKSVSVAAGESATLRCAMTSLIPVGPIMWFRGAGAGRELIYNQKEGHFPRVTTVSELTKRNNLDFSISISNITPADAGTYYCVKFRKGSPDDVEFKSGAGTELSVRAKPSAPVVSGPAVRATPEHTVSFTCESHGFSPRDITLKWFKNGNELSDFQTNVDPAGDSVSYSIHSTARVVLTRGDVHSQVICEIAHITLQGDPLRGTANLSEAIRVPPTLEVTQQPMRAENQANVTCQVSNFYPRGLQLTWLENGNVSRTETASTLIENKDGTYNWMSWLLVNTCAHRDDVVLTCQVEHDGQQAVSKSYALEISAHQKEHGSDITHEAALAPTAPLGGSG
Procedure, shortened: as §1

[5] = target: T5, human SIRPβL/SIRPβ1v3 extracellular domain + His-tag (NP_001129316.1) (human, UniProt Q5TFQ8 30-371); assay: SPR, Ab captured, ECD-His analyte
T5 construct: also called hSIRPβ1v3; HuSIRPβ1v3
T5 sequence (Q5TFQ8 other isoform, or with tags, fused parts or gaps): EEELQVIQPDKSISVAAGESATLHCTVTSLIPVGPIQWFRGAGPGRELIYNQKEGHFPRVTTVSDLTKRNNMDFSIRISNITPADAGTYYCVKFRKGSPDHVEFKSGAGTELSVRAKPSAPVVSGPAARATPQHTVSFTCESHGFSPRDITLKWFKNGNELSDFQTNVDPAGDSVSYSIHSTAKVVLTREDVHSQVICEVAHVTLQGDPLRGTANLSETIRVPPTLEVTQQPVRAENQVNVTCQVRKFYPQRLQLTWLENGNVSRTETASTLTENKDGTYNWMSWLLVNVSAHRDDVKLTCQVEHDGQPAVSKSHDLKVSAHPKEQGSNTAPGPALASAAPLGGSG
Procedure, shortened: as §1

[6] = target: T6, human SIRPγ extracellular domain + His-tag (NP_061026.2) (human, UniProt Q9P1W8 29-360); assay: SPR, Ab captured, ECD-His analyte
T6 construct: also called hSIRPγ; HuSIRPγ
T6 sequence (Q9P1W8 29-360): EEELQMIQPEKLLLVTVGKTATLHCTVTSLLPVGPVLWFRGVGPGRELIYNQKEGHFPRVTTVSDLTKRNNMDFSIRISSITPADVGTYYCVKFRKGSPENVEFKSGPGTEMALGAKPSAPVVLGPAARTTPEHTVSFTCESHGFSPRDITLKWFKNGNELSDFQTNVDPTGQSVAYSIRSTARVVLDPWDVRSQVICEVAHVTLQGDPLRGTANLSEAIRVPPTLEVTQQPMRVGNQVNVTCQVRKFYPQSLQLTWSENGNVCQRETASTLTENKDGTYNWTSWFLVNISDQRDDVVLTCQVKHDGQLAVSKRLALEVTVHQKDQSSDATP
Procedure, shortened: as §1

[7] = target: T7, full-length human SIRPγ (NP_061026.2) on cells (human, UniProt Q9P1W8 29-387); assay: flow cytometry, primary human CD3+ T cells
T7 construct: on CHO and Expi-CHO cells; endogenous on primary human CD3+ T cells; also called γ WT
T7 sequence (Q9P1W8 29-387): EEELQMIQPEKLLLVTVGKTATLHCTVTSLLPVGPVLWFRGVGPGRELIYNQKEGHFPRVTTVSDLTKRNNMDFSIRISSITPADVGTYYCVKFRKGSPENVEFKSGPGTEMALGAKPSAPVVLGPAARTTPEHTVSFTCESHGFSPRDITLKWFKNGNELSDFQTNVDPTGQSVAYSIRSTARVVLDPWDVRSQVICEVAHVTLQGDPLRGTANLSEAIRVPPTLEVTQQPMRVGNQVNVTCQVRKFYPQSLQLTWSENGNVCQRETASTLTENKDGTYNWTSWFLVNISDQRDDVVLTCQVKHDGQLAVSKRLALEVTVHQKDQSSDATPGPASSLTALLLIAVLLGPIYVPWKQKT
Procedure, shortened: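 PBMCs blocked with donkey IgG were incubated on ice for 60 min with increasing antibody concentrations, then detected with AF647 donkey F(ab′)₂ anti-human IgG. After fixation, median fluorescence intensity of the gated CD3+ population served as the binding measure.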

T1 sequence (O00241 30-398): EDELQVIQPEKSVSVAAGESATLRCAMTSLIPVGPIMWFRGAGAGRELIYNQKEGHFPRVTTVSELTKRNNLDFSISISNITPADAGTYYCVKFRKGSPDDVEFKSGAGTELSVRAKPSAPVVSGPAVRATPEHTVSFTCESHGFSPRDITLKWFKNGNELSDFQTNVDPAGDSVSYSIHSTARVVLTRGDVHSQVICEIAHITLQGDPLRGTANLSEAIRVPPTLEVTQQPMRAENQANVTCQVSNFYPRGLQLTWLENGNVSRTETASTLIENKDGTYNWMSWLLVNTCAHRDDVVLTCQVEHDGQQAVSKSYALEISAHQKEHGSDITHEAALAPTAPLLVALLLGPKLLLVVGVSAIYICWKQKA

B1: Antibody E22 (antibody, human IgG1, kappa, L234A L235A, V domains shown)
VH: QVQLQESGPGLVKPSETLSLTCTVSGGSIRDYYWSWIRQPPGKGLEWIGFIYYNGRTFYQSSLKSRVTISLDTSKNQFSLKMTSVTAADTAVYYCARVRAYSGIGLDGTDVWGQGTTVTVSS
VL: DIVMTQSPLSLPVTPGEPASISCRSSQSLLYSTGYTYLDWYLQRPGQSPQLLIYGGSSRASGVPDRFSGSGSGTDFTLKISRVEAEDVGVFYCGQALQTPLTFGQGTKVEIKR
[1]
  binding result: no binding
[2]
  Kd: 1.57 nM
[3]
  Kd: 1.47 nM
[4]
  binding result: no binding (tested: 1000 nM)
[5]
  Kd: 3.19 nM
[6]
  binding result: no binding (tested: 1000 nM)
[7]
  binding result: no binding
